The values that follow come from the DeepSol protein solubility set.

This data set can be described thus: soluble on expression in E. coli; label from the status in PepcDB or PDB records.
For “MIKRVFIDTDIILDVALAREPFFTASKIILAMAENNIIIGNISSNCVANIYYILRKSGGDNKARKFILNIVKYITVIVINHRNVLDSLRSKFSDFEDALQHSSAVENQCEYIITRNIEDYKNAKIKVLLPEEFIGMFLEHHHHHH”, the “soluble on expression in E. coli” value is listed as “not soluble”.

“MLKEAIYHRPKDNYAYAYDEKTIHIRIRTKRDDVQSTTLIYGDPYEWKDGKWISSSTPMKKTGSTALFDYWFISIEPKFKRLRYGFELKNDTDTLIYAERGFFSTTPNDDVGNFFCFPFIHANDVFKAPSWIKDTVWYQIFPERFANGDHTLNPENTLPWGSAEPTPTNFFGGDFAGIIQNLDYLVKLGISGIYFTPIFKAHSNHKYDTIDYMEIDPQFGTKETFKELVQACHTHGIKVMLDAVFNHSGYFFDKFQDVLQNGEQSAYKEWFHIHEFPIRTEPLPNYDTFAFTPYMPKLNTAHPDVKEYLLEVGRYWVREFNIDGWRLDVANEVDHNFWREFRSEIKALNSEVYILGEIWHDALPWLQGDQFDAVMSYPVTNALLSYFANDSIKANEFMKQITESLHSYSMNVNEAAFHLLDSHDTPRILTTCNGDKNKLKLLYVFHLSFIGSPCIYYGDEIGMDGGMDPDCRKCMVWDTEEQDHTLFTHVQTLISLRKQYKAFGGHGTFQFIEANDEYNYISYTKTYEDETIFFVLNPTNSDITASLPLHVTGKKIINIYTNEEFSAEASVLQVTLPPYGFSILKW”: the “soluble on expression in E. coli” value is recorded as “not soluble”.

For the sequence “MPLTNNSTTKPQEIAAIDLGSNSFHMVIARVVNGALQVLGRLKQRVHLADGLDSNNMLSEEAIERGLACLALFAERLQGFSPDNVCIVGTHTLRQAANAETFLKRAAEVIPYPIEIISGQEEARLIFMGVEHTQPEKGRKLVIDIGGGSTEMVIGEDFEPLLVESRRMGCVSFAQQFFPGGEISKNNFRRARLAAAQKLENLAWQYRIQGWQYALGASGTIKATYEVLVEMGEKDGLITPERLEMLVENVLQFKQFSALSLPGLSEDRQSVFVPGLAILCGVFDALAIKTLRLSDGALREGVLYEMEGRFRHQDIRQRTAKSLADHYNIDREQARRVLETTEQLYTQWLAQNTKLVQPQLEALLKWAAMLHEVGLSINHSGMHRHSAYILQNTNLPGFNQEQQTLLATLVRMHRKAIKLDELPRLNLFKKKYYLPLIQLLRLSTLLNNQRQSTTTPESLRLITDDSHWTLRFPHGYLTQNSLVQLDFEREQAYWDDVVGWKLVIEEEEPDEAAKVAPEE”, the “soluble on expression in E. coli” value is reported as “soluble”.

Take “MLQDAVEDLGCELWGIECQRVGRFMTVRLFIDKDGGVTVDDCADVSRQVSAILDVEDPIADKYNLEVSSPGLDRPLFTLPQFERYIGQDIAVHLRIPVMERRKWQGKLERIEKDMITLIVDDQEQILVFGNIQKANVVAKF”: the “soluble on expression in E. coli” value is given as “not soluble”.

“MSLPRLDARLKLVAAEIRGKIHADIGSDHGHLLAALLSADRIERGIAVENKLQPYRNSSATLERLNAEVRLGEGMDVIEENEIDSLSICGMGGQSIVRILSEHPNRLPKQLVLQPNQAIASVRQWARDNGYWLTDEKCTGTKRRFEVLVFSRFGPPHDPVYQKLNEVGLDESMGLMFGPWFLLRKDERLLQRLAEEQRYLQSKQNLTQTSRARVETIRRLLSSDHFLSREGHHHHHH”: the “soluble on expression in E. coli” value is reported as “soluble”.

Take “SLDPSKVTSMSAVEFTPLPTCLQHRSCDACMSSDLTFNCSWCHVLQRCSSGFDRYRQEWMDYGCAQEAEGRMCEDFQD”: the “soluble on expression in E. coli” value is listed as “soluble”.

For the sequence “MKILILGGRFGGLQTAYDLRRYLKNKADIKIIEKNRYIYFRPALPHVGIGLERAEDLRIDLAQVLPDRGIGYIQGTVTKIDPERSLVEYSREGSGGYKEKYDFLVIALGAHLASELIAGFDKYGSSVCEADLAENMWKKLRDFKGGNITLGSAKFIQDTKNRPTNTPDRYAPIADSACEGPVFEMSIMLYDYFKARNMLDKVKMTVYSPGEYLSDLSRTSRSTVAAMYKGMNIELVDNFVVKEVTEKEVISEDGRRLPSDISFILPPYTGQKLVKDAGLGDDVGFVLTGTDMKSVKYDNVYAVGDVNALIVPKMAFLAVKTARIVAANIANRLGMSIPVEVYDPKIVCVADSPYGNYAVAVTDSTFYGGNVSEAIPSPANHLKKTLFTRYFLWSKGDLAMDKYLTSWLEHHHHHH”, the “soluble on expression in E. coli” value is recorded as “not soluble”.

On to “GSMPKPINVRVTTMDAELEFAIQPNTTGKQLFDQVVKTVGLREVWFFGLQYVDSKGYSTWLKLNKKVTQQDVKKENPLQFKFRAKFFPEDVSEELIQEITQRLFFLQVKEAILNDEIYCPPETAVLLASYAVQAKYGDYNKEIHKPGYLANDRLLPQRVLEQHKLTKEQWEERIQNWHEEHRGMLREDSMMEYLKIAQDLEMYGVNYFEIKNKKGTELWLGVDALGLNIYEHDDKLTPKIGFPWSEIRNISFNDKKFVIKPIDKKAPDFVFYAPRLRINKRILALCMGNHELYMRRRKPDTIEVQQMKAQARVDSSGRIVTD”, for which the “soluble on expression in E. coli” value is “soluble”.

On to “MLDKIIEIIMTILPFLGNRKKRKAMAQDVKEFSELVKDQYTFLMEQLEKVLKDYFDLSARVKEMHTEIFSLREQLAQAATLQCVNKECLQRTQSEASISEA”, for which the “soluble on expression in E. coli” value is listed as “not soluble”.

In the case of “QVQLVASGGGSVQAGGSLRLSCAASGYTFSSYPMGWYRQAPGKECELSARIFSDGSANYADSVKGRFTISRDNAANTAYLQMDSLKPEDTAVYYCAAGPGSGKLVVAGRTCYGPNYWGQGTQVTVSS”, the “soluble on expression in E. coli” value is reported as “soluble”.

In the case of “SLETQQEGMDISSSLRKLGAQSKLIQTYIDQSLMSPNVQLEEVTALNTNQFLIKQDMKEWSSELYPQLILLNSKSKGFVTKFNSYYPTLKSFVDNKEDREGFSDRLEVLQEMAMTNQENTQRQINELTDLKLQLDKKLKDFDTNVATAQGILSTDGTGKIDQLKNEILNTKKAIQNDLQQIALIPGALNEQGFAIFKEVYSLSKEIIEPAAQAGVAAYNKGKEINNSILEAEKKAVQEATEQGKTALEIESAKKAAREAIEKSKQGEIAAAAAAKTQEYDLMKVIDTEKIKKTFGVFAEVNKLTAEQRAYLDDLEKQNQKIYDLTTKLSIADLQKSMLLLTQNDLHTFANQIDVELDLLKRYKEDLNLIKNSITKLSTNVDTTSEQSQKDTLRQLKNVISYLEEQVYKF”, the “soluble on expression in E. coli” value is on record as “soluble”.

“MSLKHRIEYAITNAVFVKADELSYLSFRVSGKVIEVYKDLGDYVKRGEALAKLDPTYYELEKRTLEKKMSALLEKKKALEIKIQKLEKGLHISLSAKKLKVESLKKKREALREKLLQVEEKIKLVKLDWERYKSLFQKGLIPRRKFEEVDTNLKVLLHEREYLEKSIQEINTEIKRAKKGIENARNEFKTIEELKKELSSLEEEIKSLKERIKTAEQKIKDTVLIAPFDGVVAKRFISRGDVVRAGQPAFALVNPESFYVEVLLEETKLKGVKVGNKAYVRLDAYPDILFEGVVEEISPASAATFALVPRDVSAGEFTKVVQRIPVKIKITKGDLSLLRVGMGGEVEIRRTREGHHHHHH”: the “soluble on expression in E. coli” value is recorded as “soluble”.

For the sequence “MYMNVLIISDSHGLEEELQTIAKRHEAEVDLMIHCGDSELETRHPALEPYAVVKGNCDFAGDFKDELLLTAGSRKILVTHGHLHGIKQTLLNVYYRAEELGADVICFGHSHIAGSEVLRGKLMINPGSIRLPRVRRTESYAILTLENDAATVRFYDQAGNEIEDLQNRVTLLEHHHHHH”, the “soluble on expression in E. coli” value is given as “not soluble”.

With “AKHLFTSESVSEGHPDKIADQISDAVLDAILEQDPKARVACETYVKTGMVLVGGEITTSAWVDIEEITRNTVREIGYVHSDMGFDANSCAVLSAIGKQSPDINQGVDRADPLEQGAGDQGLMFGYATNETDVLMPAPITYAHRLVQRQAEVRKNGTLPWLRPDAKSQVTFQYDDGKIVGIDAVVLSTQHSEEIDQKSLQEAVMEEIIKPILPAEWLTSATKFFINPTGRFVIGGPMGDCGLTGRKIIVDTYGGMARHGGGAFSGKDPSKVDRSAAYAARYVAKNIVAAGLADRCEIQVSYAIGVAEPTSIMVETFGTEKVPSEQLTLLVREFFDLRPYGLIQMLDLLHPIYKETAAYGHFGREHFPWEKTDKAQLLRDAAGLK”, the “soluble on expression in E. coli” value is listed as “soluble”.

Take “MTKIFAKEWNMSDPGRALASFFATLPTRPQLLALGEPNHTDDAFPAQRNRLFRTLVEEYGFRSIALESDILAGQRVNAYVTGGADDLEEVMRTGFSHDFGRRAANRELVGWLRDFNAGRSADEQVHFYGFDPPMENLWAASPRASLLTLHALLARQVPALPVSAATIERLCGDDARWANPAAGMDAAQSIGHSDEARQLRVLTDDLLHRLETGAPGLAEQPDFWEAQLAARTAAGLLRYHAVMADPAPDRIARMLAARDLLMAGHLLAIAEREQRCGPTLVFAHNLHLQRPLSRMKMGAQKIGAQTLDWWGAGAHVSRRLGERYAFIASYPGAAEETFLVPSSELTEAAATQLSVRDDGQPYSFPFKLSDLPFLNGALLVGQFLEHHHHHH”: the “soluble on expression in E. coli” value is “soluble”.

For the sequence “MSQPSGPPIGFSNPDYIPPKALDLLKPALTIRAPPEETGMLGELQEDVLQVLSLPCRHTNACLPACLQSLPILCSF”, the “soluble on expression in E. coli” value is “soluble”.

Take “MFSSAVRALCRTVPTVATRQLSTSRALLSLRPLGPKNTVPAFKGTAVVDGDFKVISDQDYKGKWLVMFFYPLDFTFVCPTEIIAYGDRANEFRSLGAEVVACSCDSHFSHLAWVNTPRKDGGLGDMDIPLLADFNKKIADSFGVLDKESGLSYRGLFLIDPSGTVRHTTCNDLPVGRSVDETLRVLKAFQFSDKHGEVCPADWHEDSPTIKPGVATSKEYFNKVNK”: the “soluble on expression in E. coli” value is on record as “not soluble”.

For the sequence “MAPNASCLCVHVRSEEWDLMTFDANPYDSVKKIKEHVRSKTKVPVQDQVLLLGSKILKPRRSLSSYGIDKEKTIHLTLKVVKPSDEELPLFLVESGDEAKRHLLQVRRSSSVAQVKAMIETKTGIIPETQIVTCNGKRLEDGKMMADYGIRKGNLLFLACYCIGG”, the “soluble on expression in E. coli” value is given as “soluble”.

In the case of “MDIQTRKSILWDAFEELKTRWGADEKFLERVEEEELTVDGLPESKVRDLIELREKYQLDELEFLFIVGTAVGLYQGQKQVKEILQRRMSALNEFVSSLVGREL”, the “soluble on expression in E. coli” value was “not soluble”.

For the sequence “MSLAKTVLVTGASGFIGSHLVGRCLADGCRVKALVRKGNACIDSLRASGVEVIEGDVRDATAVDAAVRESDLVLHAAALTSDWGKMQEFIDINVGGTRNVCEASLRHGVGRLVHVSSFECFDHHLLGRIDEQTPYKARKQSYPDTKIGGTNEVWAAIKRGLSASILYPVWVYGPGDRTLFPLLADSILRRQLFFWARNAPMSMIYIDNLVDLTMLAASRPEAVGEAFMACDGEAITFEEVCRRVAVAIGSPVPSLHLPFGMVRSVAGVMEFVWRIAGSKKRPLLTRQAVDVLASRALADVSKARTMLGWQSHVPQEEGIRRTLEWLVTVDPARWKVKEGHHHHHH”, the “soluble on expression in E. coli” value is recorded as “soluble”.

Take “MAISFDYSNALPFMQENELDYLSEFVKAAHHMLHERKGPGSDFLGWVDWPIRYDKNEFSRIKQAAERIRNHSDALVVIGIGGSYLGARAAIEALSHTFHNQMNDTTQIYFAGQNISSTYISHLLDVLEGKDLSINVISKSGTTTEPAIAFRIFRDYMEKKYGKEEARKRIYVTTDRTKGALKKLADQEGYETFVIPDNIGGRYSVLTAVGLLPIAVAGLNIDRMMEGAASAYHKYNNPDLLTNESYQYAAVRNILYRKGKAIELLVNYEPSLHYVSEWWKQLFGESEGKDQKGLFPASVDFTTDLHSMGQYVQEGRRNLIETVLHVKKPQIELTIQEDPENIDGLNFLAGKTLDEVNKKAFQGTLLAHVDGGVPNLIVELDEMNEYTFGEMVYFFEKACGISGHLLGVNPFDQPGVEAYKKNMFALLGKPGFEDEKAALMKRLSK”: the “soluble on expression in E. coli” value is “soluble”.

In the case of “MKTSSIIEFKNPISKYQHDVDDGLHSDYKVINNEFIHKSIRILENYQFIQSLSHADKSTLIQHLKIRKYYHNQTVYNQNDPCTDINILLEGALKLGWSTSQGKYHTDIFVPSGTLINIVPIVTGQPLLHDHIAQGRTVIANLPGQLFVDVIRNNADALFMVLKLICVRTQLNREQNFIYSTETLQTRLAKKLVFLVDYHSYQDKDKILLNLKLSQENLAELLQTSRQSINKELAALSNQNIIEVKYNQIFILDFEKLSNIAQTHQFHSTTKFL”, the “soluble on expression in E. coli” value is “not soluble”.
